{"source": "paper PMC5827136", "molecular_target": "Histone H4 (UniProt P62805)", "assay": "SPR", "data": [{"substance": "protein SIC (Streptococcal Inhibitor of Complement) (natural protein)", "values": [{"measurement": "Kd", "result": 17.6, "unit": "nM"}, {"measurement": "koff", "result": 0.000591, "unit": "s⁻¹"}, {"measurement": "kon", "result": 33500, "unit": "M⁻¹ s⁻¹"}]}]}
